Measurements reported in article PMC6288126, “Structural insights into DDA1 function as a core component of the CRL4-DDB1 ubiquitin ligase” (Cell Discovery, 2018).

Biological target: T1, DDB1 (DNA damage-binding protein 1) (human, UniProt Q16531 1-1140)
T1 construct: triple beta-propeller (BPA, BPB, BPC) and CTD; also called free DDB1; purified DDB1; source: purified recombinant protein
Test: BLI; affinity-tagged DDA1 FL and fragments immobilised on the probe as ligand, free DDB1 as analyte at different concentrations; Kd from the dose response curve of maximal binding signals
Conditions: both partners purified

T1 sequence (Q16531 whole entry): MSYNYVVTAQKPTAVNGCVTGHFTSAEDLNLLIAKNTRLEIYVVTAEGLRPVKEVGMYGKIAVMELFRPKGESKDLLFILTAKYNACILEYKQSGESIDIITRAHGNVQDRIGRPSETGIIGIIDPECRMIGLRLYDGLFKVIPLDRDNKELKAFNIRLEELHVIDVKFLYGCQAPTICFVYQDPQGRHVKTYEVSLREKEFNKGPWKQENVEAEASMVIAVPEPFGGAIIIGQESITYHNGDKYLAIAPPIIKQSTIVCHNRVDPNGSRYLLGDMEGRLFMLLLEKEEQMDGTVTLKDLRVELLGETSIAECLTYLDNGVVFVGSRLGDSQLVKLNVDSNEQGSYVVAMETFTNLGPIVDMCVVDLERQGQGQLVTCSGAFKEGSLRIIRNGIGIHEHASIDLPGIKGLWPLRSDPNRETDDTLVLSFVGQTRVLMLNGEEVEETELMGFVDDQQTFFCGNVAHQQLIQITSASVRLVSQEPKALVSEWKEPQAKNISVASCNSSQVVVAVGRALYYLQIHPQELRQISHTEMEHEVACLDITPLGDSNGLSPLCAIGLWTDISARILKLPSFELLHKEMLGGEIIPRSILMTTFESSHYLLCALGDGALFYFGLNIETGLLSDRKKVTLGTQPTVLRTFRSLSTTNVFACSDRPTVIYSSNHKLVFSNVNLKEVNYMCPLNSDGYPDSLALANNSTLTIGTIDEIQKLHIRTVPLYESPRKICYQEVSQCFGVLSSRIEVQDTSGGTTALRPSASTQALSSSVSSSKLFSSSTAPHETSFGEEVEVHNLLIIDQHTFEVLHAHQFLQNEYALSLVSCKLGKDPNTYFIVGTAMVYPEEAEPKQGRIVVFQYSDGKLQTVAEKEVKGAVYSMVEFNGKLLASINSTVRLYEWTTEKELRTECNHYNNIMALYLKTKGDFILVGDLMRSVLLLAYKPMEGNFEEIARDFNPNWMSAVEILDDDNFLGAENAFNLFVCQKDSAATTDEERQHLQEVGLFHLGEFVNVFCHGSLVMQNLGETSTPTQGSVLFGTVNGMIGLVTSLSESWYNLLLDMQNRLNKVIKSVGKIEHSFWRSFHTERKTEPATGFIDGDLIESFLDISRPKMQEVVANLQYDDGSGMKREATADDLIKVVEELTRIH

B1: Affinity-tagged DDA1-NT (1-28 aa) (bio-layer interferometry) (domain or fragment)
chain: not shown
notes: DDA1, N-terminal fragment DDA1-NT (1-28 aa); it may be the GST fusion of m3; source: purified recombinant protein
B1 gave a Kd of ~45 nM.
